From PMC5275738 come the findings set out here.

In this experiment the target is SF3b145(598–631) fragment, tag-free recombinant (isotope-labeled) (human) (UniProt Q13435). Kind of experiment: NMR titration.
Sequence of UniProt Q13435 (Q13435 598-631): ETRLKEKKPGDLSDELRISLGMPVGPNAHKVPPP

Broadly, the Kd is the concentration at which binding is half-saturated. As for “human SF3b49 RRM1 (Pro5–Leu96), tag-free (from UniProt Q15427 5-96) (domain or fragment)”, the Kd amounted to 50 µM.
